From the supplement of paper PMC9233669
Fewer inactive variants are shown than the library holds.

Columns and labels:
[1] = system: biotinyl-Phe-oxazolone; assay: self-aminoacylation, catalytic enhancement (BFO) (fold over background); higher = more active; k-Seq, kA / k0A0; sequences stand for … in GGGAAUGGAUCCACAUCUACGAAUUC…UUCACUGCAGACUUGACGAAGCUG
Method in brief: (§1)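 Mutagenized RNA pools with a 21-nt variable region (0.43 μM) reacted with each biotinyl-aminoacyl-oxazolone at 2–1250 μM. Reactions ran in 50 μL HEPES/NaCl/KCl/MgCl2/CaCl2 buffer with 5% acetonitrile, pH 6.9–7.0, for 90 minutes at room temperature. Streptavidin-captured RNA was quantified by triplicate qPCR and Illumina sequencing, and per-sequence fraction reacted was fit to a pseudo-first-order model with 1000 bootstraps. Catalytic enhancement is median kA divided by the uncatalyzed rate, the low-activity peak of a bimodal Gaussian fit.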

[2] = system: biotinyl-Ile-oxazolone; assay: self-aminoacylation, catalytic enhancement (BIO) (fold over background); higher = more active; k-Seq, kA / k0A0; sequences stand for … in GGGAAUGGAUCCACAUCUACGAAUUC…UUCACUGCAGACUUGACGAAGCUG
Method in brief: as §1

[3] = system: biotinyl-Met-oxazolone; assay: self-aminoacylation, catalytic enhancement (BMO) (fold over background); higher = more active; k-Seq, kA / k0A0; sequences stand for … in GGGAAUGGAUCCACAUCUACGAAUUC…UUCACUGCAGACUUGACGAAGCUG
Method in brief: as §1

[4] = system: biotinyl-Val-oxazolone; assay: self-aminoacylation, catalytic enhancement (BVO) (fold over background); higher = more active; k-Seq, kA / k0A0; sequences stand for … in GGGAAUGGAUCCACAUCUACGAAUUC…UUCACUGCAGACUUGACGAAGCUG
Method in brief: as §1

[5] = system: biotinyl-Leu-oxazolone; assay: self-aminoacylation, catalytic enhancement (BLO) (fold over background); higher = more active; k-Seq, kA / k0A0; sequences stand for … in GGGAAUGGAUCCACAUCUACGAAUUC…UUCACUGCAGACUUGACGAAGCUG
Method in brief: as §1

[6] = system: biotinyl-Trp-oxazolone; assay: self-aminoacylation, catalytic enhancement (BWO) (fold over background); higher = more active; k-Seq, kA / k0A0; sequences stand for … in GGGAAUGGAUCCACAUCUACGAAUUC…UUCACUGCAGACUUGACGAAGCUG
Method in brief: as §1

Row | Sequence | self-aminoacylation [1] | self-aminoacylation [2] | self-aminoacylation [3] | self-aminoacylation [4] | self-aminoacylation [5] | self-aminoacylation [6]
1 | AAGUUUGUUAAUAGUCCCAAG [Fam3.1 aminoacylation ribozyme variant] | 1.12 | 0.846 | 0.751 | 0.884 | 0.775 | 0.847
2 | AAGUUUGCGAAUUGUCGCAAG [Fam3.1 aminoacylation ribozyme variant] | 6.83 | 1.77 | 2.15 | 2.23 | 1.94 | 2.19
3 | AUUCACCUAGGUCAACGGGUG [Fam2.2 aminoacylation ribozyme variant] | 27.5 | 2.5 | 4.01 | 2.48 | 5.19 | 3.49
4 | CUACUUCUUACAAUCGGUCUG [Fam1A.1 aminoacylation ribozyme variant] | 0.695 | 0.767 | 0.812 | 0.707 | 0.624 | 0.524
5 | AUUACCCUGGUCCUCCAGUGA [Fam2.1 aminoacylation ribozyme variant] | 49.6 | 4.44 | 7.44 | 3.79 | 8.6 | 9.12
6 | CUACUUAAAACAAUGGGUCUG [Fam1A.1 aminoacylation ribozyme variant] | 0.9 | 1.05 | 1.28 | 1.05 | 1.03 | 0.653
7 | AUGCACCUAGGUCAUGGGGUG [Fam2.2 aminoacylation ribozyme variant] | 31.3 | 3.85 | 4.33 | 3.42 | 4.53 | 5.66
8 | ACUCACCUAGGUCAUCGGGUG [Fam2.2 aminoacylation ribozyme variant] | 105 | 9.45 | 15.9 | 9.32 | 19.8 | 13.9
9 | AUUACACUGUUCAUCGAGUGA [Fam2.1 aminoacylation ribozyme variant] | 3.06 | 2.01 | 3.76 | 2.17 | 2.97 | 4.78
10 | CUUCACCUAGGGCAUCGGGUG [Fam2.2 aminoacylation ribozyme variant] | 17.5 | 2.75 | 2.91 | 3.04 | 3.99 | 4.25
11 | GUUACCCUGGUCAUCCAGUGA [Fam2.1 aminoacylation ribozyme variant] | 52.7 | 4.66 | 7.39 | 4.7 | 7.84 | 9.02
12 | CUGCUUCAAACAAUCGGUCUA [Fam1A.1 aminoacylation ribozyme variant] | 80.1 | 1.3 | 1.33 | 1.34 | 2.18 | 38.8
13 | AUUACUUUGGUCAUCGAGUGA [Fam2.1 aminoacylation ribozyme variant] | 25.8 | 3.55 | 6.07 | 3.57 | 7.1 | 8.06
14 | AUUCACCAAGGUCCUCGGGUG [Fam2.2 aminoacylation ribozyme variant] | 76.6 | 4.66 | 8.8 | 5.39 | 11 | 8.35
15 | UUUCACCAAGGUCAUCGGGUG [Fam2.2 aminoacylation ribozyme variant] | 58.3 | 5.54 | 9.41 | 6.02 | 10.3 | 10.2
16 | AUUAACCUGGUCAUCGAGUCA [Fam2.1 aminoacylation ribozyme variant] | 0.5 | 0.698 | 0.763 | 0.711 | 0.662 | 0.405
17 | AAGUUUGCGAGUAGUCGCAAG [Fam3.1 aminoacylation ribozyme variant] | 1.71 | 1.12 | 0.918 | 0.882 | 1.22 | 1.32
18 | CUACUUCCAAGAAUCGGUCUG [Fam1A.1 aminoacylation ribozyme variant] | 0.97 | 0.838 | 0.934 | 0.776 | 0.762 | 1.04
19 | AAGCUUGCUAAUUGUCGCAAG [Fam3.1 aminoacylation ribozyme variant] | 2.23 | 1.96 | 2.38 | 1.57 | 2.25 | 1.99
20 | AUGCACCUAGGUCAUCUGGUG [Fam2.2 aminoacylation ribozyme variant] | 10.8 | 1.67 | 1.95 | 1.69 | 2.34 | 2.17
21 | AUUCACCUAGGUCAUUGGGUG [Fam2.2 aminoacylation ribozyme variant] | 20.1 | 2.31 | 3.26 | 2.29 | 4.03 | 3.18
22 | AUUACCCUUGUCGUCGAGUGA [Fam2.1 aminoacylation ribozyme variant] | 2.62 | 1.13 | 1.06 | 1.11 | 1.05 | 0.966
23 | CUAUUUCAAACAAGCGGUCUG [Fam1A.1 aminoacylation ribozyme variant] | 0.738 | 1.01 | 0.882 | 0.933 | 1.02 | 0.77
24 | AUUACCCUGGUCAAUGAGUGA [Fam2.1 aminoacylation ribozyme variant] | 30.9 | 3.46 | 7.16 | 3.7 | 6.7 | 8.83
25 | CCACACUUCAAGCUAGCGGUC [Fam1B.1 aminoacylation ribozyme variant] | 0.856 | 0.921 | 0.714 | 0.911 | 0.984 | 0.75
26 | CUACUUCAACCAAUCGAUCUG [Fam1A.1 aminoacylation ribozyme variant] | 1.98 | 0.763 | 0.62 | 0.665 | 0.598 | 1.04
